Measurements as given in patent US20160002619A1 (CORNELL UNIVERSITY, published 2016).

Columns and labels:
[1] = target: the molecule itself; assay: SEC-MALS, self-association
Excerpt: FIGS. 4A-F define the oligomeric species of GAC mutants. In particular, multi-angle light scattering profiles of WT-GAC (FIG. 4A), D391K-GAC (FIG. 4B), K316E-D391K-R459E-GAC (FIG. 4C), and K316E-GAC (FIG. 4D) were obtained following SEC and subsequent MALS analysis, where elution of each species was monitored using refractive index (left axis). Upon elution, light scattering data was collected and then used to calculate the molecular weight and polydispersity for the species eluted (right axis). Reference lines for the molecular weights of the monomer, dimer, and tetramer forms of GAC are included at 58 kD, 116 kD, and 230 kD respectively. […]
Purified GAC and GAC mutants were subjected to analytical size exclusion chromatography on a Superdex 200 10/300 GL column (GE Healthcare) equilibrated with 20 mM Tris-HCl pH 8.5, 200 mM NaCl for experiments in the absence of inorganic phosphate and 20 mM Tris-HCl pH 8.5, 200 mM NaCl, 50 mM K₂HPO₄ for experiments in the presence of inorganic phosphate at a temperature of 4° C. and flow rate of 0.4 ml/min. […] RMS radius and mass distribution (polydispersity) was analyzed using the ASTRA software using monomeric BSA (Sigma) to normalize the light scattering signal.

[2] = target: the molecule itself; assay: analytical gel filtration (Superdex 200 10/300 GL), self-association
Experimental: FIGS. 3A-C illustrate that WT GAC accesses monomer, dimer, and larger oligomeric species in a concentration and phosphate dependent manner.
Purified GAC and GAC mutants were subjected to analytical size exclusion chromatography on a Superdex 200 10/300 GL column (GE Healthcare) equilibrated with 20 mM Tris-HCl pH 8.5, 200 mM NaCl for experiments in the absence of inorganic phosphate and 20 mM Tris-HCl pH 8.5, 200 mM NaCl, 50 mM K₂HPO₄ for experiments in the presence of inorganic phosphate at a temperature of 4° C. and flow rate of 0.4 ml/min. Protein concentrations were prepared to be either 5 mg/mL or 0.5 mg/mL and centrifuged at 10,000×g for 10 minutes prior to injecting 200 μL of each sample. The same protocol was followed for MALS analysis. Briefly, 50 μL samples of 0.5, 5, or 10 mg/mL GAC was injected onto a WTC-030S5 size exclusion column (Wyatt technology) coupled to a static 18-angle light scattering detector (DAWN HELEOS-II) and a refractive index detector (OptiLab T-rEX, Wyatt Technology) kept at 23° C. The flow rate was kept at 1 mL/min. RMS radius and mass distribution (polydispersity) was analyzed using the ASTRA software using monomeric BSA (Sigma) to normalize the light scattering signal.

[3] = target: the molecule itself; assay: preparative Superdex200 gel filtration, self-association
[4] = target: T1, ALEXA FLUOR 488-labeled wild type mouse KGA (kidney type glutaminase isoform 1, residues 72-674) (mouse, UniProt D3Z7P3 72-674, ALEXA FLUOR 488 succinimidyl ester covalently attached to a lysine amino group (exact residue not given)); assay: FRET time course: quenching of 10 nM 488-KGA fluorescence by QSY 9-KGA, then 10-fold excess unlabeled WT-KGA [panel a]
T1 construct: Recombinant; His-tag cleaved with thrombin
T1 sequence: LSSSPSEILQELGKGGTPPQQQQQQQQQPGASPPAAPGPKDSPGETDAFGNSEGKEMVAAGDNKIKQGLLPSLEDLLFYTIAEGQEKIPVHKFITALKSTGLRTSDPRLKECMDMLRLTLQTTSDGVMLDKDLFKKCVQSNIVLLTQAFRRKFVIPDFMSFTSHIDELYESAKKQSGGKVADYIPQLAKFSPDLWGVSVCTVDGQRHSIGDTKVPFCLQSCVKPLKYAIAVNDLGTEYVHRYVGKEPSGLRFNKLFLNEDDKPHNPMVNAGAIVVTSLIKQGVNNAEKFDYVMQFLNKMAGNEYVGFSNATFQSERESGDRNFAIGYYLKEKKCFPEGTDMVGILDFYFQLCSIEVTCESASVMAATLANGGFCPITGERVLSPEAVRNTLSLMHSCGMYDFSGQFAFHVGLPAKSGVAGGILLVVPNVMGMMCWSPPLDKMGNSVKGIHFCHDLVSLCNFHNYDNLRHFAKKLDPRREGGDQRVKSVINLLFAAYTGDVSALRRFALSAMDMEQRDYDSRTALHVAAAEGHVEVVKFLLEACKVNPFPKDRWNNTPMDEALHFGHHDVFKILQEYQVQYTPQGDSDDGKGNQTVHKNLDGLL
Experimental: FIGS. 9A-B illustrate that the alternate splice variant KGA behaves like GAC in a FRET assay. […] After 5 minutes, the appropriate volume of 33.25 μM (for concentrations up to 200 nM labeled protein) or 69.5 μM (for concentrations above 200 nM labeled protein) unlabeled WT-KGA was added to make the final concentration of unlabeled KGA to be ten-times the concentration of labeled KGA.

B1: unlabeled wild type mouse GAC (glutaminase C, residues 72-603) (enzyme)
chain: LSSSPSEILQELGKGGTPPQQQQQQQQQPGASPPAAPGPKDSPGETDAFGNSEGKEMVAAGDNKIKQGLLPSLEDLLFYTIAEGQEKIPVHKFITALKSTGLRTSDPRLKECMDMLRLTLQTTSDGVMLDKDLFKKCVQSNIVLLTQAFRRKFVIPDFMSFTSHIDELYESAKKQSGGKVADYIPQLAKFSPDLWGVSVCTVDGQRHSIGDTKVPFCLQSCVKPLKYAIAVNDLGTEYVHRYVGKEPSGLRFNKLFLNEDDKPHNPMVNAGAIVVTSLIKQGVNNAEKFDYVMQFLNKMAGNEYVGFSNATFQSERESGDRNFAIGYYLKEKKCFPEGTDMVGILDFYFQLCSIEVTCESASVMAATLANGGFCPITGERVLSPEAVRNTLSLMHSCGMYDFSGQFAFHVGLPAKSGVAGGILLVVPNVMGMMCWSPPLDKMGNSVKGIHFCHDLVSLCNFHNYDNLRHFAKKLDPRREGGDQRHSFGPLDYESLQQELALKDTVWKKVSPESSDDTSTTVVYRMESLGERS
notes: Recombinant; His-tag cleaved with thrombin; The oligomeric state depends on concentration and phosphate; also called WT-GAC; WT GAC
other
  concentration dependent activation of WT-GAC (glutaminase activity, two-step assay, no phosphate): The quenching was shown to be concentration dependent with the resultant FRET titration curve strongly correlating with the concentration dependent activation of WT-GAC
  glutaminase specific activity (µM Glu/µM GAC min) of 50 nM WT-GAC, two-step assay, 20 mM glutamine, phosphate varied: specific activity (filled circles) rises from about 500 near 3 mM phosphate to about 5000 at 20 mM and 8000 at 45 mM; it is flat at about 8700 from 67 to 150 mM
  glutaminase specific activity (µM Glu/µM GAC min), two-step assay, 20 mM glutamine, no phosphate: specific activity (filled circles) rises from about 100 at 50 nM GAC to about 290 at 230 nM, 410 at 510 nM and about 460-470 at 770 and 1150 nM, lying on the FRET points
[1]
  binding result: binds

B2: unlabeled mouse GAC D391K (constitutive dimer mutant) (enzyme)
chain: LSSSPSEILQELGKGGTPPQQQQQQQQQPGASPPAAPGPKDSPGETDAFGNSEGKEMVAAGDNKIKQGLLPSLEDLLFYTIAEGQEKIPVHKFITALKSTGLRTSDPRLKECMDMLRLTLQTTSDGVMLDKDLFKKCVQSNIVLLTQAFRRKFVIPDFMSFTSHIDELYESAKKQSGGKVADYIPQLAKFSPDLWGVSVCTVDGQRHSIGDTKVPFCLQSCVKPLKYAIAVNDLGTEYVHRYVGKEPSGLRFNKLFLNEDDKPHNPMVNAGAIVVTSLIKQGVNNAEKFDYVMQFLNKMAGNEYVGFSNATFQSERESGKRNFAIGYYLKEKKCFPEGTDMVGILDFYFQLCSIEVTCESASVMAATLANGGFCPITGERVLSPEAVRNTLSLMHSCGMYDFSGQFAFHVGLPAKSGVAGGILLVVPNVMGMMCWSPPLDKMGNSVKGIHFCHDLVSLCNFHNYDNLRHFAKKLDPRREGGDQRHSFGPLDYESLQQELALKDTVWKKVSPESSDDTSTTVVYRMESLGERS
notes: also called D391K-GAC
other
  concentration dependent activation (glutaminase activity, 20 mM glutamine, no phosphate): no concentration dependent activation was observed of purified GAC mutants
[2]
  binding result: binds

B3: unlabeled mouse GAC K316E/D391K/R459E (constitutive monomer mutant) (enzyme)
chain: LSSSPSEILQELGKGGTPPQQQQQQQQQPGASPPAAPGPKDSPGETDAFGNSEGKEMVAAGDNKIKQGLLPSLEDLLFYTIAEGQEKIPVHKFITALKSTGLRTSDPRLKECMDMLRLTLQTTSDGVMLDKDLFKKCVQSNIVLLTQAFRRKFVIPDFMSFTSHIDELYESAKKQSGGKVADYIPQLAKFSPDLWGVSVCTVDGQRHSIGDTKVPFCLQSCVKPLKYAIAVNDLGTEYVHRYVGEEPSGLRFNKLFLNEDDKPHNPMVNAGAIVVTSLIKQGVNNAEKFDYVMQFLNKMAGNEYVGFSNATFQSERESGKRNFAIGYYLKEKKCFPEGTDMVGILDFYFQLCSIEVTCESASVMAATLANGGFCPITGERVLSPEAVENTLSLMHSCGMYDFSGQFAFHVGLPAKSGVAGGILLVVPNVMGMMCWSPPLDKMGNSVKGIHFCHDLVSLCNFHNYDNLRHFAKKLDPRREGGDQRHSFGPLDYESLQQELALKDTVWKKVSPESSDDTSTTVVYRMESLGERS
notes: also called K316E-D391K-R459E-GAC; monomeric GAC (K316E-D391K-R459E)
other
  concentration dependent activation (glutaminase activity, 20 mM glutamine, no phosphate): no concentration dependent activation was observed of purified GAC mutants
[3]
  binding result: no binding

B4: Δ72 K316E-GAC (enzyme)
glutaminase C subunit: LSSSPSEILQELGKGGTPPQQQQQQQQQPGASPPAAPGPKDSPGETDAFGNSEGKEMVAAGDNKIKQGLLPSLEDLLFYTIAEGQEKIPVHKFITALKSTGLRTSDPRLKECMDMLRLTLQTTSDGVMLDKDLFKKCVQSNIVLLTQAFRRKFVIPDFMSFTSHIDELYESAKKQSGGKVADYIPQLAKFSPDLWGVSVCTVDGQRHSIGDTKVPFCLQSCVKPLKYAIAVNDLGTEYVHRYVGEEPSGLRFNKLFLNEDDKPHNPMVNAGAIVVTSLIKQGVNNAEKFDYVMQFLNKMAGNEYVGFSNATFQSERESGDRNFAIGYYLKEKKCFPEGTDMVGILDFYFQLCSIEVTCESASVMAATLANGGFCPITGERVLSPEAVRNTLSLMHSCGMYDFSGQFAFHVGLPAKSGVAGGILLVVPNVMGMMCWSPPLDKMGNSVKGIHFCHDLVSLCNFHNYDNLRHFAKKLDPRREGGDQRHSFGPLDYESLQQELALKDTVWKKVSPESSDDTSTTVVYRMESLGERS
notes: Unlabeled single mutant of the mouse GAC construct
[1]
  binding result: binds

B5: QSY 9-labeled wild type mouse KGA (kidney type glutaminase isoform 1, residues 72-674) (enzyme)
chain: LSSSPSEILQELGKGGTPPQQQQQQQQQPGASPPAAPGPKDSPGETDAFGNSEGKEMVAAGDNKIKQGLLPSLEDLLFYTIAEGQEKIPVHKFITALKSTGLRTSDPRLKECMDMLRLTLQTTSDGVMLDKDLFKKCVQSNIVLLTQAFRRKFVIPDFMSFTSHIDELYESAKKQSGGKVADYIPQLAKFSPDLWGVSVCTVDGQRHSIGDTKVPFCLQSCVKPLKYAIAVNDLGTEYVHRYVGKEPSGLRFNKLFLNEDDKPHNPMVNAGAIVVTSLIKQGVNNAEKFDYVMQFLNKMAGNEYVGFSNATFQSERESGDRNFAIGYYLKEKKCFPEGTDMVGILDFYFQLCSIEVTCESASVMAATLANGGFCPITGERVLSPEAVRNTLSLMHSCGMYDFSGQFAFHVGLPAKSGVAGGILLVVPNVMGMMCWSPPLDKMGNSVKGIHFCHDLVSLCNFHNYDNLRHFAKKLDPRREGGDQRVKSVINLLFAAYTGDVSALRRFALSAMDMEQRDYDSRTALHVAAAEGHVEVVKFLLEACKVNPFPKDRWNNTPMDEALHFGHHDVFKILQEYQVQYTPQGDSDDGKGNQTVHKNLDGLL
modifications: QSY 9 succinimidyl ester covalently attached to a lysine amino group (exact residue not given)
notes: Recombinant; His-tag cleaved with thrombin; also called QSY 9-KGA
[4]
  binding result: binds
